Laboratory results: US20240369491A1

Target: SARS-CoV-2 Spike RBD-His (Cat #: 40592-V08B) (SARS-CoV-2), P0DTC2

| Binder | N:Au ratio (XPS) after RBD binding |
| --- | --- |
| CIEEQAKTFLDKFNHEAEDLFYQS (modifications not checked) [Cys-SBP] | 1.31 |
| CIEEQAKTFLDKFNHEAEDLFYQS (modifications not checked) [Cys-SBP-PEG4] | 1.45 |
